Assay results taken from the supplement of paper PMC11780869.

System: Bacillus subtilis
Assay: cleaved RNA product abundance (RNA/gDNA barcode ratio) relative to median wild-type variant (ratio to wild type); higher = more accumulation of the downstream cleavage product
Conditions: cleavage site: cggR-gapA (positions -7 to +36 mutated)
In short: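 Oligos with a 9% error rate were used to build barcoded, mutagenized RNase Y cleavage-site windows within truncated aprE or tetM reporter mRNAs, which were integrated into the B. subtilis chromosome. Cultures were grown in LB at 37°C between OD600 0.0003 and 0.3. Cleaved RNA was gel-selected, reverse transcribed and barcode-sequenced, as were genomic DNA barcodes, and UMIs were collapsed. Cleaved product abundance is the scaled RNA:gDNA barcode ratio, with the median construct carrying the unmutated site as reference.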

[1] = experiment (reporter, strain, medium): exp 2b: truncated aprE reporter, strain BJT200
[2] = experiment (reporter, strain, medium): exp 4a: truncated aprE reporter, strain BJT201 with 2% xylose (RNase J1 expressed)
[3] = experiment (reporter, strain, medium): exp 6: tetM reporter, strain 168

Sequence | cleaved RNA product abundance [1] | cleaved RNA product abundance [2] | cleaved RNA product abundance [3]
ACAGACGAAGGAGCCGCAAAGAAGTTATTAAGGTATGAATAAACCCTCAATATAAATATCTCTCACTTATTTAAA | 0.0972 | 0.124 | –
ACAGACGAAGGAGCCGCAAAGAAGTTATTAAGGTATGAATAACCCCTCAATATAAATATCTCTCACTTATTTAAA | 0.0833 | 0.0618 | –
ACAGACGAAGGAGCCGCAAAGAAGTTATTAAGGTATGAATAAGCCCTCAATATAAATATCTCTCACTTATTTAAA | – | 0.13 | –
ACAGACGAAGGAGCCGCAAAGAAGTTATTAAGGTATGAATAATACCTCAATATAAATATCTCTCACTTATTTAAA | 1 | 1.16 | –
ACAGACGAAGGAGCCGCAAAGAAGTTATTAAGGTATGAATAATCACTCAATATAAATATCTCTCACTTATTTAAA | – | 0.142 | –
ACAGACGAAGGAGCCGCAAAGAAGTTATTAAGGTATGAATAATCCATCAATATAAATATCTCTCACTTATTTAAA | 0.125 | 0.145 | –
ACAGACGAAGGAGCCGCAAAGAAGTTATTAAGGTATGAATAATCCCACAATATAAATATCTCTCACTTATTTAAA | 0.0792 | 0.0978 | –
ACAGACGAAGGAGCCGCAAAGAAGTTATTAAGGTATGAATAATCCCCCAATATAAATATCTCTCACTTATTTAAA | – | 0.141 | –
ACAGACGAAGGAGCCGCAAAGAAGTTATTAAGGTATGAATAATCCCGCAATATAAATATCTCTCACTTATTTAAA | – | 0.0533 | –
ACAGACGAAGGAGCCGCAAAGAAGTTATTAAGGTATGAATAATCCCTAAATATAAATATCTCTCACTTATTTAAA | 0.109 | 0.168 | –
ACAGACGAAGGAGCCGCAAAGAAGTTATTAAGGTATGAATAATCCCTCAAAATAAATATCTCTCACTTATTTAAA | 0.108 | 0.115 | –
ACAGACGAAGGAGCCGCAAAGAAGTTATTAAGGTATGAATAATCCCTCAACATAAATATCTCTCACTTATTTAAA | – | 0.11 | –
ACAGACGAAGGAGCCGCAAAGAAGTTATTAAGGTATGAATAATCCCTCAAGATAAATATCTCTCACTTATTTAAA | 0.111 | 0.151 | –
ACAGACGAAGGAGCCGCAAAGAAGTTATTAAGGTATGAATAATCCCTCAATAAAAATATCTCTCACTTATTTAAA | 0.119 | 0.0613 | –
ACAGACGAAGGAGCCGCAAAGAAGTTATTAAGGTATGAATAATCCCTCAATACAAATATCTCTCACTTATTTAAA | 0.0986 | – | –
ACAGACGAAGGAGCCGCAAAGAAGTTATTAAGGTATGAATAATCCCTCAATAGAAATATCTCTCACTTATTTAAA | – | 0.0725 | –
ACAGACGAAGGAGCCGCAAAGAAGTTATTAAGGTATGAATAATCCCTCAATATAAAAATCTCTCACTTATTTAAA | 0.107 | 0.153 | –
ACAGACGAAGGAGCCGCAAAGAAGTTATTAAGGTATGAATAATCCCTCAATATAAACATCTCTCACTTATTTAAA | – | 0.124 | –
ACAGACGAAGGAGCCGCAAAGAAGTTATTAAGGTATGAATAATCCCTCAATATAAATATCTCTCACTTATTTAAA | 0.107 | 0.142 | 0.127
ACAGACGAAGGAGCCGCAAAGAAGTTATTAAGGTATGAATAATCCCTCAATATAAATATTTCTCACTTATTTAAA | – | 0.121 | –
ACAGACGAAGGAGCCGCAAAGAAGTTATTAAGGTATGAATAATCCCTCAATATAAATCTCTCTCACTTATTTAAA | 0.0874 | – | –
ACAGACGAAGGAGCCGCAAAGAAGTTATTAAGGTATGAATAATCCCTCAATATAAATGTCTCTCACTTATTTAAA | – | 0.107 | –
ACAGACGAAGGAGCCGCAAAGAAGTTATTAAGGTATGAATAATCCCTCAATATAAATTTCTCTCACTTATTTAAA | – | 0.17 | –
ACAGACGAAGGAGCCGCAAAGAAGTTATTAAGGTATGAATAATCCCTCAATATAACTATCTCTCACTTATTTAAA | – | 0.102 | –
ACAGACGAAGGAGCCGCAAAGAAGTTATTAAGGTATGAATAATCCCTCAATATAATTATCTCTCACTTATTTAAA | – | 0.0923 | –
ACAGACGAAGGAGCCGCAAAGAAGTTATTAAGGTATGAATAATCCCTCAATATAGATATCTCTCACTTATTTAAA | – | 0.08 | –

Sequence | cleaved RNA product abundance [1] | cleaved RNA product abundance [2] | cleaved RNA product abundance [3]
ACAGACGAAGGAGCCGCAAAGAAGTTATTAAGGTATGAATAATCCCTCAATATATATATCTCTCACTTATTTAAA | 0.121 | 0.0867 | –
ACAGACGAAGGAGCCGCAAAGAAGTTATTAAGGTATGAATAATCCCTCAATATTAATATCTCTCACTTATTTAAA | – | 0.0645 | –
ACAGACGAAGGAGCCGCAAAGAAGTTATTAAGGTATGAATAATCCCTCAATCTAAATATCTCTCACTTATTTAAA | – | 0.0855 | –
ACAGACGAAGGAGCCGCAAAGAAGTTATTAAGGTATGAATAATCCCTCAATGTAAATATCTCTCACTTATTTAAA | 0.094 | 0.0511 | –
ACAGACGAAGGAGCCGCAAAGAAGTTATTAAGGTATGAATAATCCCTCAATTTAAATATCTCTCACTTATTTAAA | 0.0856 | 0.0555 | –
ACAGACGAAGGAGCCGCAAAGAAGTTATTAAGGTATGAATAATCCCTCAGTATAAATATCTCTCACTTATTTAAA | – | 0.1 | –
ACAGACGAAGGAGCCGCAAAGAAGTTATTAAGGTATGAATAATCCCTCATTATAAATATCTCTCACTTATTTAAA | – | 0.107 | –
ACAGACGAAGGAGCCGCAAAGAAGTTATTAAGGTATGAATAATCCCTCCATATAAATATCTCTCACTTATTTAAA | – | 0.0967 | –
ACAGACGAAGGAGCCGCAAAGAAGTTATTAAGGTATGAATAATCCCTCGATATAAATATCTCTCACTTATTTAAA | 0.0823 | 0.0744 | –
ACAGACGAAGGAGCCGCAAAGAAGTTATTAAGGTATGAATAATCCCTCTATATAAATATCTCTCACTTATTTAAA | 0.0999 | 0.11 | –
ACAGACGAAGGAGCCGCAAAGAAGTTATTAAGGTATGAATAATCCCTGAATATAAATATCTCTCACTTATTTAAA | 0.0773 | 0.0951 | –
ACAGACGAAGGAGCCGCAAAGAAGTTATTAAGGTATGAATAATCCCTTAATATAAATATCTCTCACTTATTTAAA | 0.709 | 0.461 | 0.236
ACAGACGAAGGAGCCGCAAAGAAGTTATTAAGGTATGAATAATCCGTCAATATAAATATCTCTCACTTATTTAAA | 0.0647 | 0.0909 | 0.0676
ACAGACGAAGGAGCCGCAAAGAAGTTATTAAGGTATGAATAATCCTTCAATATAAATATCTCTCACTTATTTAAA | 0.145 | 0.126 | –
ACAGACGAAGGAGCCGCAAAGAAGTTATTAAGGTATGAATAATCGCTCAATATAAATATCTCTCACTTATTTAAA | – | 0.0909 | –
ACAGACGAAGGAGCCGCAAAGAAGTTATTAAGGTATGAATAATCTCTCAATATAAATATCTCTCACTTATTTAAA | – | 0.162 | –
ACAGACGAAGGAGCCGCAAAGAAGTTATTAAGGTATGAATAATTCCTCAATATAAATATCTCTCACTTATTTAAA | 0.0842 | 0.156 | –
ACAGACGAAGGAGCCGCAAAGAAGTTATTAAGGTATGAATACTCCCTCAATATAAATATCTCTCACTTATTTAAA | 0.0931 | 0.135 | –
ACAGACGAAGGAGCCGCAAAGAAGTTATTAAGGTATGAATATTCCCTCAATATAAATATCTCTCACTTATTTAAA | – | 0.0859 | –
ACAGACGAAGGAGCCGCAAAGAAGTTATTAAGGTATGAATCATCCCTCAATATAAATATCTCTCACTTATTTAAA | – | 0.176 | –
ACAGACGAAGGAGCCGCAAAGAAGTTATTAAGGTATGAATGATCCCTCAATATAAATATCTCTCACTTATTTAAA | 0.0901 | 0.0732 | –
ACAGACGAAGGAGCCGCAAAGAAGTTATTAAGGTATGAATTATCCCTCAATATAAATATCTCTCACTTATTTAAA | 0.15 | – | –
ACAGACGAAGGAGCCGCAAAGAAGTTATTAAGGTATGACTAATCCCTCAATATAAATATCTCTCACTTATTTAAA | – | 0.107 | –
ACAGACGAAGGAGCCGCAAAGAAGTTATTAAGGTATGAGTAATCCCTCAATATAAATATCTCTCACTTATTTAAA | – | 0.224 | –
ACAGACGAAGGAGCCGCAAAGAAGTTATTAAGGTATGATTAATCCCTCAATATAAATATCTCTCACTTATTTAAA | – | 0.153 | –
ACAGACGAAGGAGCCGCAAAGAAGTTATTAAGGTATGCATAATCCCTCAATATAAATATCTCTCACTTATTTAAA | – | 0.126 | –
